IntAct's records for PubMed 31515488

B1: DNA replication complex GINS protein PSF2 (Homo sapiens), Q9Y248 (parent)
chain: MDAAEVEFLAEKELVTIIPNFSLDKIYLIGGDLGPFNPGLPVEVPLWLAINLKQRQKCRLLPPEWMDVEKLEKMRDHERKEETFTPMPSPYYMELTKLLLNHASDNIPKADEIRTLVKDMWDTRIAKLRVSADSFVRQQEAHAKLDNLTLMEINTSGTFLTQALNHMYKLRTNLQPLESTQSQDF
B2: Leucine rich adaptor protein 1 (Homo sapiens), Q96LR2 (parent)
chain: MEGTVESQTPDLRDVEGKVGRKTPEGLLRGLRGECELGTSGALLLPGASSTGHDLGDKIMALKMELAYLRAIDVKILQQLVTLNEGIEAVRWLLEERGTLTSHCSSLTSSQYSLTGGSPGRSRRGSWDSLPDTSTTDRLDSVSIGSFLDTVAPSELDEQGPPGAPRSEMDWAKVIAGGERARTEVDVAATRLGSLRAVWKPPGERLQGGPPESPEDESAKLGFEAHWFWEQCQDDVTFL
B3: Tuftelin-interacting protein 11 (Homo sapiens), Q9UBB9 (parent)
chain: MSLSHLYRDGEGRIDDDDDERENFEITDWDLQNEFNPNRQRHWQTKEEATYGVWAERDSDDERPSFGGKRARDYSAPVNFISAGLKKGAAEEAELEDSDDEEKPVKQDDFPKDFGPRKLKTGGNFKPSQKGFAGGTKSFMDFGSWERHTKGIGQKLLQKMGYVPGRGLGKNAQGIINPIEAKQRKGKGAVGAYGSERTTQSMQDFPVVDSEEEAEEEFQKELSQWRKDPSGSKKKPKYSYKTVEELKAKGRISKKLTAPQKELSQVKVIDMTGREQKVYYSYSQISHKHNVPDDGLPLQSQQLPQSGKEAKAPGFALPELEHNLQLLIDLTEQEIIQNDRQLQYERDMVVNLFHELEKMTEVLDHEERVISNLSKVLEMVEECERRMQPDCSNPLTLDECARIFETLQDKYYEEYRMSDRVDLAVAIVYPLMKEYFKEWDPLKDCTYGTEIISKWKSLLENDQLLSHGGQDLSADAFHRLIWEVWMPFVRNIVTQWQPRNCDPMVDFLDSWVHIIPVWILDNILDQLIFPKLQKEVENWNPLTDTVPIHSWIHPWLPLMQARLEPLYSPIRSKLSSALQKWHPSDSSAKLILQPWKDVFTPGSWEAFMVKNIVPKLGMCLGELVINPHQQHMDAFYWVIDWEGMISVSSLVGLLEKHFFPKWLQVLCSWLSNSPNYEEITKWYLGWKSMFSDQVLAHPSVKDKFNEALDIMNRAVSSNVGAYMQPGARENIAYLTHTERRKDFQYEAMQERREAENMAQRGIGVAASSVPMNFKDLIETKAEEHNIVFMPVIGKRHEGKQLYTFGRIVIYIDRGVVFVQGEKTWVPTSLQSLIDMAK
partner: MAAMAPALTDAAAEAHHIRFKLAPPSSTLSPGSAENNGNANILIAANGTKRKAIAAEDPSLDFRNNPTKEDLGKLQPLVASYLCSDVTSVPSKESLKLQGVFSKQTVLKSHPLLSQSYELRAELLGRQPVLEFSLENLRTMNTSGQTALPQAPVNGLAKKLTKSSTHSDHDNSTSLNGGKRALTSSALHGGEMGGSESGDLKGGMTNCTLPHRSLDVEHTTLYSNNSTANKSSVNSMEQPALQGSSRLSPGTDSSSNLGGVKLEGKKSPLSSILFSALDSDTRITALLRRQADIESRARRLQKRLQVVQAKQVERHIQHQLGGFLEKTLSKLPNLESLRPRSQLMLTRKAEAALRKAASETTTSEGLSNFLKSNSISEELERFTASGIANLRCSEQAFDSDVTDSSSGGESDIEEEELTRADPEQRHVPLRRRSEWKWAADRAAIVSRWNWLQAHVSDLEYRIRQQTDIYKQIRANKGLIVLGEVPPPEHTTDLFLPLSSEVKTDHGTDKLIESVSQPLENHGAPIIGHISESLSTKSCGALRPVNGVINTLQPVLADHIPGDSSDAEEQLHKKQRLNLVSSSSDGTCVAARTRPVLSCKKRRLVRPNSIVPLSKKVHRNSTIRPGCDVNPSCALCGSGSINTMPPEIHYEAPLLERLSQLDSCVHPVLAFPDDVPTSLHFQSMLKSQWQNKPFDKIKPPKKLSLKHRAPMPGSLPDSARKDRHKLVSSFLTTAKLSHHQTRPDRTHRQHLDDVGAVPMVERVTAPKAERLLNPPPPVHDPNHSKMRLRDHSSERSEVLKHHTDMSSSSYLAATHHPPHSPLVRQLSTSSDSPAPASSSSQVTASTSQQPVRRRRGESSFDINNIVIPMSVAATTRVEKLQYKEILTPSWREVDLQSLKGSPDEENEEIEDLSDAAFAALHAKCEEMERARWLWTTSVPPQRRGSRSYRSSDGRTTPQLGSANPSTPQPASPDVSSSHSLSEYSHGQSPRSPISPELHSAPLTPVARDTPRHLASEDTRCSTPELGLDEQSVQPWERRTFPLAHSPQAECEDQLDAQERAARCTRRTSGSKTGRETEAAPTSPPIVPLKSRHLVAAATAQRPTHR
B4: G patch domain and ankyrin repeat-containing protein 1 (Homo sapiens), O95872 (parent)
chain: MSRPLLITFTPATDPSDLWKDGQQQPQPEKPESTLDGAAARAFYEALIGDESSAPDSQRSQTEPARERKRKKRRIMKAPAAEAVAEGASGRHGQGRSLEAEDKMTHRILRAAQEGDLPELRRLLEPHEAGGAGGNINARDAFWWTPLMCAARAGQGAAVSYLLGRGAAWVGVCELSGRDAAQLAEEAGFPEVARMVRESHGETRSPENRSPTPSLQYCENCDTHFQDSNHRTSTAHLLSLSQGPQPPNLPLGVPISSPGFKLLLRGGWEPGMGLGPRGEGRANPIPTVLKRDQEGLGYRSAPQPRVTHFPAWDTRAVAGRERPPRVATLSWREERRREEKDRAWERDLRTYMNLEF
partner: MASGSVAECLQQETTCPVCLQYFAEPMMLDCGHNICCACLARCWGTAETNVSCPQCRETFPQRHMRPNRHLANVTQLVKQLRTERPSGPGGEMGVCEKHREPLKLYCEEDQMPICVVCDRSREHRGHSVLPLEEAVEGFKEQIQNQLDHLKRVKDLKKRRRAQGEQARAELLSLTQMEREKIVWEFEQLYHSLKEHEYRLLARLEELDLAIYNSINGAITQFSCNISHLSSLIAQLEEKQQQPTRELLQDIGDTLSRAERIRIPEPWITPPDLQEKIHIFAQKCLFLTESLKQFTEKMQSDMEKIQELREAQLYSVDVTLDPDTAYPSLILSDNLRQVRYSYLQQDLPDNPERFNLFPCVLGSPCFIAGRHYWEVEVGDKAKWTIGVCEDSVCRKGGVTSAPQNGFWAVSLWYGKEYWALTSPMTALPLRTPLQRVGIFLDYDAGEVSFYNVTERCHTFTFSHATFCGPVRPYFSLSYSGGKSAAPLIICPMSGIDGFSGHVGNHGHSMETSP
B5: Ligand of Numb protein X 2 (Homo sapiens), Q8N448 (parent)
chain: MGTTSDEMVSVEQTSSSSLNPLCFECGQQHWTRENHLYNYQNEVDDDLVCHICLQPLLQPLDTPCGHTFCYKCLRNFLQEKDFCPLDRKRLHFKLCKKSSILVHKLLDKLLVLCPFSSVCKDVMQRCDLEAHLKNRCPGASHRRVALERRKTSRTQAEIENENGPTLLDPAGTLSPEADCLGTGAVPVERHLTSASLSTWSEEPGLDNPAFEESAGADTTQQPLSLPEGEITTIEIHRSNPYIQLGISIVGGNETPLINIVIQEVYRDGVIARDGRLLAGDQILQVNNYNISNVSHNYARAVLSQPCNTLHLTVLRERRFGNRAHNHSDSNSPREEIFQVALHKRDSGEQLGIKLVRRTDEPGVFILDLLEGGLAAQDGRLSSNDRVLAINGHDLKYGTPELAAQIIQASGERVNLTIARPGKPQPGNTIREAGNHSSSSQHHTPPPYYSRPSSHKDLTQCVTCQEKHITVKKEPHESLGMTVAGGRGSKSGELPIFVTSVPPHGCLARDGRIKRGDVLLNINGIDLTNLSHSEAVAMLKASAASPAVALKALEVQIVEEATQNAEEQPSTFSENEYDASWSPSWVMWLGLPSTLHSCHDIVLRRSYLGSWGFSIVGGYEENHTNQPFFIKTIVLGTPAYYDGRLKCGDMIVAVNGLSTVGMSHSALVPMLKEQRNKVTLTVICWPGSLV
partner: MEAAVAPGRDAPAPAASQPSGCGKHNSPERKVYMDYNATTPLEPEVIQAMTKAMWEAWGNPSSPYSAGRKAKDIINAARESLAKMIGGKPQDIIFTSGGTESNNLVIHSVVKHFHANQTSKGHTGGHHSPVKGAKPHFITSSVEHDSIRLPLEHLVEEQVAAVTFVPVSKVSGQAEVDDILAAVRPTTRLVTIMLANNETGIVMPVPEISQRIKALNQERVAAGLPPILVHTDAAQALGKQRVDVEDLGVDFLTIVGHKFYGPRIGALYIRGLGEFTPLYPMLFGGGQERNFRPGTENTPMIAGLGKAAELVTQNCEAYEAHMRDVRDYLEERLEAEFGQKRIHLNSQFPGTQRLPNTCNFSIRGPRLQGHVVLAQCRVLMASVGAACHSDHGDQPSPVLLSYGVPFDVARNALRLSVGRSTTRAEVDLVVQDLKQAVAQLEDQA
B6: Proline-rich protein 3 (Homo sapiens), P79522 (parent)
chain: MPKRKKQNHHQPPTQQQPPLPEREETGDEEDGSPIGPPSLLGPPPMANGKPGDPKSALHRGPPGSRGPLIPPLLSLPPPPWGRGPIRRGLGPRSSPYGRGWWGVNAEPPFPGPGHGGPTRGSFHKEQRNPRRLKSWSLIKNTCPPKDDPQVMEDKSDRPVCRHFAKKGHCRYEDLCAFYHPGVNGPPL
partner: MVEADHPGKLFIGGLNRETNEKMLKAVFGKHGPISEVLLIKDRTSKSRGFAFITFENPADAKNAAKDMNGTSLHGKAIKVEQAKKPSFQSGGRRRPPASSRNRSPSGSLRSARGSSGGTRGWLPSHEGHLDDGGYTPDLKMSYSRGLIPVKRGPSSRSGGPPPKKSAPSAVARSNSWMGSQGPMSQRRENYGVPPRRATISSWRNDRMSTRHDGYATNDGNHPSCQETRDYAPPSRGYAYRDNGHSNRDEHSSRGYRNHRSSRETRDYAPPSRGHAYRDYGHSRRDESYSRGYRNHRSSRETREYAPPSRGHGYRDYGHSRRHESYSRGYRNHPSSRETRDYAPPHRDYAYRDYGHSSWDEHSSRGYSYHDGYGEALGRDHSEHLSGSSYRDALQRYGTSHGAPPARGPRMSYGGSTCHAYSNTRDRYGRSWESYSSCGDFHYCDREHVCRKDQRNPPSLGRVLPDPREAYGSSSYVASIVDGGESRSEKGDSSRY
B7: 1-phosphatidylinositol 4,5-bisphosphate phosphodiesterase delta-4 (Homo sapiens), Q9BRC7 (parent)
chain: MASLLQDQLTTDQDLLLMQEGMPMRKVRSKSWKKLRYFRLQNDGMTVWHARQARGSAKPSFSISDVETIRNGHDSELLRSLAEELPLEQGFTIVFHGRRSNLDLMANSVEEAQIWMRGLQLLVDLVTSMDHQERLDQWLSDWFQRGDKNQDGKMSFQEVQRLLHLMNVEMDQEYAFSLFQAADTSQSGTLEGEEFVQFYKALTKRAEVQELFESFSADGQKLTLLEFLDFLQEEQKERDCTSELALELIDRYEPSDSGKLRHVLSMDGFLSYLCSKDGDIFNPACLPIYQDMTQPLNHYFICSSHNTYLVGDQLCGQSSVEGYIRALKRGCRCVEVDVWDGPSGEPVVYHGHTLTSRILFKDVVATVAQYAFQTSDYPVILSLETHCSWEQQQTMARHLTEILGEQLLSTTLDGVLPTQLPSPEELRRKILVKGKKLTLEEDLEYEEEEAEPELEESELALESQFETEPEPQEQNLQNKDKKKKSKPILCPALSSLVIYLKSVSFRSFTHSKEHYHFYEISSFSETKAKRLIKEAGNEFVQHNTWQLSRVYPSGLRTDSSNYNPQELWNAGCQMVAMNMQTAGLEMDICDGHFRQNGGCGYVLKPDFLRDIQSSFHPEKPISPFKAQTLLIQVISGQQLPKVDKTKEGSIVDPLVKVQIFGVRLDTARQETNYVENNGFNPYWGQTLCFRVLVPELAMLRFVVMDYDWKSRNDFIGQYTLPWTCMQQGYRHIHLLSKDGISLRPASIFVYICIQEGLEGDES
partner: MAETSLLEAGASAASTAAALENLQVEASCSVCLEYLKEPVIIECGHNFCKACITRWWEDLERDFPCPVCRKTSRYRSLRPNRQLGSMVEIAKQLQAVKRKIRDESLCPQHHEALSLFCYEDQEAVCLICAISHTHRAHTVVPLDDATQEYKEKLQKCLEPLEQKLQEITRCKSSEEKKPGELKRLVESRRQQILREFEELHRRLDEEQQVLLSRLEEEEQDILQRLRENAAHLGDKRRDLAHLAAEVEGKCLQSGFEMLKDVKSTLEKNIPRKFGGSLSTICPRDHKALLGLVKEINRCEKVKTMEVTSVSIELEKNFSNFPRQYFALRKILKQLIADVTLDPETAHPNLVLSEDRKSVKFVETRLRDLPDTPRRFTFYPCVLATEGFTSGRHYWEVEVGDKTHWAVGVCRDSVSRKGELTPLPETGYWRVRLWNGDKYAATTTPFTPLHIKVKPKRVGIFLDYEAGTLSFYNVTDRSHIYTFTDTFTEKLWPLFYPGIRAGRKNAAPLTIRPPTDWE

Variants of: B1
Details: with sld5_human GINS4, Q9BRT9
sld5_human GINS4, Q9BRT9, sequence (Q9BRT9 whole entry): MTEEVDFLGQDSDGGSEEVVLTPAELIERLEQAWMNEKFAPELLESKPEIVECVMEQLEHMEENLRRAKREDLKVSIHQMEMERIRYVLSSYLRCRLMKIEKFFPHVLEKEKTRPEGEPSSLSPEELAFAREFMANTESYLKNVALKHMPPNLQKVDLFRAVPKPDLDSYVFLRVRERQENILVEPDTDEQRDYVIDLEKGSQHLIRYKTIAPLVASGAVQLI

effect of a mutation on the interaction	Variant
with no effect	T172K

Variants of: B2
Details: with tpm3_human TPM3, P06753
tpm3_human TPM3, P06753, sequence (P06753 whole entry): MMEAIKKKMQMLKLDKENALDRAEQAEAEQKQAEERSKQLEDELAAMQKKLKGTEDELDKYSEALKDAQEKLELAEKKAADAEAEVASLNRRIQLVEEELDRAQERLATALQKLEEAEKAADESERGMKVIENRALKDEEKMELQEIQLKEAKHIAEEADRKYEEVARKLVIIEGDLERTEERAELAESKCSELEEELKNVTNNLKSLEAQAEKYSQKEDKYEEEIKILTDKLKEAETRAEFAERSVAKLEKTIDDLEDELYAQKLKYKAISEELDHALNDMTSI

effect of a mutation on the interaction	Variant
with no effect	Q207R

Variants of: B3
Details: with kanl1_human KANSL1, Q7Z3B3

effect of a mutation on the interaction	Variant
with no effect	S688L
with no effect	R8Q

Variants of: B4
Details: with tri27_human TRIM27, P14373

effect of a mutation on the interaction	Variant
disrupting interaction strength	D56E

Variants of: B5
Details: with scly_human SCLY

effect of a mutation on the interaction	Variant
with no effect	S198P

Variants of: B6
Details: with rby1f_human RBMY1F

effect of a mutation on the interaction	Variant
with no effect	R87W

Variants of: B7
Details: with tri39_human TRIM39, Q9HCM9

effect of a mutation on the interaction	Variant
with no effect	N475K
